Test results taken from US20230348630A1 (BEIJING MABWORKS BIOTECH, published 2023).
Like-named read-outs stand apart in the source and are kept apart here.

How the values were obtained:
[1] = target: T1, CD3D&E protein (Cat #: CT038-H2508H, Sino Biological) (human, UniProt P04234 22-105; P07766 23-126); experiment: ELISA, coated CD3D&E
T1 construct: Bought complex of the delta and epsilon chains; also called CD3D&E complex; human CD3D&E complex

CD3 on Jurkat cells [2] = target: T2, CD3 on Jurkat cells (UniProt P04234 22-171; P07766 23-207); experiment: flow cytometry on Jurkat cells
T2 construct: whole, on cells
T2 sequence (P04234 22-171, chain 1 of 2): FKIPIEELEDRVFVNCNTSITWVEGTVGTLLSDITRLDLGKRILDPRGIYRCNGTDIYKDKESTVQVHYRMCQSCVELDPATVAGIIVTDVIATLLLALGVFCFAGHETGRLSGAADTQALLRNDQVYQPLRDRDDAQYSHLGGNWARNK
T2 sequence (P07766 23-207, chain 2 of 2): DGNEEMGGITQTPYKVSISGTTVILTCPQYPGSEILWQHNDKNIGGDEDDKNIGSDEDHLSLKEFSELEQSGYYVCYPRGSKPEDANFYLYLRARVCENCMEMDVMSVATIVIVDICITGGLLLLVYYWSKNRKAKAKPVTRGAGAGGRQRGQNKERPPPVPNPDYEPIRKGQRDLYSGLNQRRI
Procedure: (§1) Jurkat cells were collected, centrifuged at 300 g for 5 min, and suspended in PBS. After another centrifugation, the cells were suspended in 2% FBS-PBS at the cell density of 3×10⁶/ml, and […] were plated onto a U-bottom plate. The plate was added with 50 μl serially diluted anti-CD3 antibodies of the disclosure in 2% FBS-PBS (4-fold dilution, starting at 20 μg/ml), and incubated at room temperature for 1 h. The plate was washed with 2% FBS-PBS for three times, added with 50 μl PE-labeled goat-anti-human IgG (H+L) (1: 500), and incubated at room temperature for 45 min. The plate was washed with 2% FBS-PBS again for three times, and added with 150 μl 2% FBS-PBS to suspend the cells. The plate was measured for cell fluorescence using a cytometry, and the data was processed with FlowJo and analyzed with GraphPad.

[3] = target: T3, CD3E protein (Cat #: 10977-H08S, Sino Biological) (UniProt P07766 23-126); experiment: SPR (BIAcore 8K), CD3E coupled to the chip, antibody as analyte
T3 construct: also called CD3ε
T3 sequence (P07766 23-126 limits assumed, stated change not applied): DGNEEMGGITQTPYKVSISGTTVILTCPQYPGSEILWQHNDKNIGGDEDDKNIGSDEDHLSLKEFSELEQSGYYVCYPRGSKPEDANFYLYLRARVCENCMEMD
Procedure: For the test regarding binding affinity to CD3E (Cat #: 10977-H08S, Sino Biological), the CD3E molecules were coupled to a CMS biosensor chip, where about 200 RU of the molecules bound to the chip. The anti-CD3 antibodies of the disclosure diluted with the HBS-EP buffer (Cat #: BR-1006-69, GE Life Sciences) at 120 μg/ml were respectively flowed through the chip. Chip regeneration was performed with pH1.5 Gly-HCl.

[4] = target: T1, CD3D&E protein (Cat #: CT038-H2508H, …); experiment: SPR (BIAcore 8K), antibody captured by anti-human Fc, CD3D&E as analyte
Procedure: Briefly, the mouse anti-human Fc antibodies were coupled to a CM5 biosensor chip. The anti-CD3 antibodies of the disclosure in the HBS-EP buffer (Cat #: BR-1006-69, GE Life Sciences) at the concentration of 1 μg/ml was flowed through the chip, where about 100 RU of the antibodies were captured by the mouse anti-human Fc antibodies. Serially diluted CD3D&E molecules (Cat #: CT038-H2508H, Sino Biological) in the HBS-EP buffer (Cat #: BR-1006-69, GE Life Sciences) (2-fold dilution starting at 20 μg/ml) were respectively flowed through the chip. Chip regeneration was performed with 3 M MgCl₂.

[5] = target: T1, CD3D&E protein (Cat #: CT038-H2508H, …); experiment: ELISA, coated CD3D&E; remark: listed apart in the source
Procedure: (§2) The purified bispecific antibodies were tested for their binding capability to recombinant human CD3 and human BCMA proteins by ELISA, following the protocols in Example 4 and Example 9.

[6] = target: T4, BCMA-his protein (Cat #: BCA-H522y, ACRO) (human, UniProt Q02223 1-54); experiment: ELISA, coated BCMA protein
T4 construct: Bought recombinant protein; the construct is most likely only a soluble part of it; also called BCMA protein; human BCMA
T4 sequence: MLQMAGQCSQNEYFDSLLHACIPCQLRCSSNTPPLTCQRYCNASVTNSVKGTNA
Procedure: Briefly, an ELISA plate was coated with 100 μl 1 μg/ml BCMA protein (Cat #: BCA-H522y, ACRO) in PBS overnight at 4° C. Then, the plate was blocked with 250 μl PBST with 4% skimmed milk at room temperature for 1 h. […] The negative control well was added with PBST instead of the antibody. The plate was washed with PBST for three times, added with 100 μl HRP conjugated goat anti-human IgG (1:7000, Cat #: 31413, thermofisher), and incubated at room temperature for 1 h. The plate was washed again with PBST for four times, added with 100 μl freshly prepared TMB (Cat #: 555214, BD, USA), and left still for color development, which was terminated with 50 μl 10% H₂SO₄. The absorbance was read at 450 nm, and the data was processed and analyzed using GraphPad.
as §2

CD3 on Jurkat cells [7] = target: T2, CD3 on Jurkat cells; experiment: flow cytometry on Jurkat cells; remark: listed apart in the source
Procedure: as §1
Following the protocol of Example 11, the bispecific antibodies of the disclosure were tested for their binding capability to Jurkat cells.

[8] = target: T4, BCMA-his protein (Cat #: BCA-H522y, …); experiment: SPR (BIAcore 8K), protocol of Example 5
Procedure: (§3) Following the protocols in Example 5 and Example 10, the bispecific antibodies of the disclosure were tested for their binding affinity to CD3D&E and human BCMA.

[9] = target: T1, CD3D&E protein (Cat #: CT038-H2508H, …); experiment: SPR (BIAcore 8K), protocol of Example 10
Procedure: as §3

[10] = target: T5, human BCMA on HEK293A/human BCMA cells (human, UniProt Q02223 1-184); experiment: flow cytometry on HEK293A/human BCMA cells
T5 sequence: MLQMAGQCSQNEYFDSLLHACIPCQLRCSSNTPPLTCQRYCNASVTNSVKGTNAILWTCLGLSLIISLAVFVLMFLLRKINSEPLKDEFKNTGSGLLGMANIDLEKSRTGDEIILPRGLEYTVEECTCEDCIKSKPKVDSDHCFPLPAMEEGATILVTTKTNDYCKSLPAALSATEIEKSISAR
Procedure: (§4) The anti-BCMA antibody's binding capability to cell surface BCMAs was tested by FACS. Briefly, HEK293A/human BCMA cells, HEK293A/monkey BCMA cells and HEK293A/mouse BCMA cells, as generated in Example 1, were collected, digested with trypsin, and subjected to centrifugation at 300 g for 5 min. The cells were suspended in PBS, and subjected to centrifugation again. The cells were re-suspended in PBS with 2% FBS at the cell density at 4×10⁶/ml, and 50 μl cells were seeded onto a U-bottom plate. […] The plate was washed with 2% FBS-PBS for three times, added with 50 μl PE-labeled goat-anti-human IgG (H+L) (1: 500), and incubated at room temperature for 45 min. The plate was washed with 2% FBS-PBS again for three times, and added with 150 μl 2% FBS-PBS to suspend the cells. The plate was measured for cell fluorescence using a cytometry, and the data was processed with FlowJo and analyzed with GraphPad.
(§5) Following the protocol of Example 6, the bispecific antibodies of the disclosure were tested for their binding capability to the HEK293A/human BCMA cells, HEK293A/monkey BCMA cells, and HEK293A/mouse BCMA cells as generated in Example 1.

[11] = target: monkey BCMA on HEK293A/monkey BCMA cells (monkey, UniProt Q02223 1-184 (human entry)); experiment: flow cytometry on HEK293A/monkey BCMA cells
Chain of monkey BCMA on HEK293A/monkey BCMA cells (Q02223 other isoform, or with tags, fused parts or gaps): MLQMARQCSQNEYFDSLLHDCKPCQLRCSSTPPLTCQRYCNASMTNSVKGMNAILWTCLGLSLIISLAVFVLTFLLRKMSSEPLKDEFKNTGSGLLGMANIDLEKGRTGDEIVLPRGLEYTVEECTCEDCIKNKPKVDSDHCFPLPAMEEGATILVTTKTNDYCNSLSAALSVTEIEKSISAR
Procedure: as §4, §5

[12] = target: T6, mouse BCMA on HEK293A/mouse BCMA cells (mouse, UniProt O88472 1-185); experiment: flow cytometry on HEK293A/mouse BCMA cells [continued) E]
T6 sequence: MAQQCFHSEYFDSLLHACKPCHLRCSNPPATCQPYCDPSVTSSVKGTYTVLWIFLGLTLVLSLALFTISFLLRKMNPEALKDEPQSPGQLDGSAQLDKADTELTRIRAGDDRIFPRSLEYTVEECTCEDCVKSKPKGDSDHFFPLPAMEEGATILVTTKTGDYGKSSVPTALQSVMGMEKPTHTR
Procedure: as §4, §5

T1 sequence (P04234 22-105, form in doubt, chain 1 of 2): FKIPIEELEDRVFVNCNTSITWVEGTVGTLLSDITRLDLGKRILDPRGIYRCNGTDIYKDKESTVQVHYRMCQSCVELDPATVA
T1 sequence (P07766 23-126, form in doubt, chain 2 of 2): as the sequence (P07766 23-126 limits assumed, stated change not applied) above

B1: anti-CD3D&E antibody D1E9, full-length human IgG1 (L234A/L235A/N297A)/kappa (antibody, V domains shown)
VH: EVQLVESGGGLVQPGRSLRLSCAASGFTFDDFAMHWVRQAPGKGLEWVSGITWNSGSVGYADSVKGRFTISRDNAKKSLYLQMNSLRAEDTALYYCAKDRSGYGHYYYGMDVWGQGTTVTVAS
VL: EIVMTQSPATLSVSPGERATLSCRASTSVSHNVAWYQQKPGQAPRLLIYGASTKVTGIPARFSGSGSGTEFTLTISSLQSEDFAVYYCQHYINWPLTFGGGTKVEIKR
EC50 [1]: 0.0879 µg/mL | EC50 (CD3 on Jurkat cells [2]): 0.0837 µg/mL | binding result [3]: no binding (tested: 120 µg/ml) | Kd [4]: 120 nM

B2: anti-CD3D&E antibody D12A4, full-length human IgG1 (L234A/L235A/N297A)/kappa (antibody, V domains shown)
VH: EVQLVESGGGLVQPGRSLRLSCAASGFTFGDYAMHWVRQAPGKGLEWVSGISWNHGHIGYADSVKGRFTISRDNAKKSLYLQMNSLRAEDTALYYCAKDNSGYGHYYYGMDVWGQGTTVTVAS
VL: EIVMTQSPATLSVSPGERATLSCRASRSVSRNLAWYQQKPGQAPRLLIYGASTKPTGIPARFSGSGSGTEFTLTISSLQSEDFAVYYCQHYTNWPLRFGGGTKVEIKR
EC50 [1]: 0.0226 µg/mL | EC50 (CD3 on Jurkat cells [2]): 0.11 µg/mL | binding result [3]: no binding (tested: 120 µg/ml) | Kd [4]: 357 nM

B3: anti-CD3/BCMA bispecific antibody MBS305-M-KIH (bispecific antibody, human IgG1, kappa, L234A L235A, N297A)
heavy 1: QVQLVQSGAEVKKPGASVKVSCKASGYTFTNHIIHWVRQAPGQGLEWMGYINPYPGYHGYNDKFSGRATMTSDTSTSTVYMELSSLRSEDTAVYYCARDGYYRDQDVLDYWGQGTLVTVSSASTKGPSVFPLAPSSKSTSGGTAALGCLVKDYFPEPVTVSWNSGALTSGVHTFPAVLQSSGLYSLSSVVTVPSSSLGTQTYICNVNHKPSNTKVDKKVEPKSCDKTHTCPPCPAPEAAGGPSVFLFPPKPKDTLMISRTPEVTCVVVDVSHEDPEVKFNWYVDGVEVHNAKTKPREEQYASTYRVVSVLTVLHQDWLNGKEYKCKVSNKALPAPIEKTISKAKGQPREPQVYTLPPSREEMTKNQVSLSCAVKGFYPSDIAVEWESNGQPENNYKTTPPVLDSDGSFFLVSKLTVDKSRWQQGNVFSCSVMHEALHNHYTQKSLSLSPGK
light 1: not shown
heavy 2: QVQLVQSGAEVKKPGASVKVSCKASGYTFTNHIIHWVRQAPGQGLEWMGYINPYPGYHGYNDKFSGRATMTSDTSTSTVYMELSSLRSEDTAVYYCARDGYYRDQDVLDYWGQGTLVTVSSGGGGSGGGGSGGGGSGGGGSDIQMTQSPSSLSASVGDRVTITCKASQDISQYLNWYQQKPGKAPKLLIYYTSGLHPGVPSRFSGSGSGTDFTFTISSLEPEDEATYYCQQGYALPWTFGQGTKLTAKRGGGGSGGGGSGGGGSEVQLVESGGGLVQPGRSLRLSCAASGFTFDSYSMHWVRQAPGKGLEWVSGISWNSGSLGYADSVKGRFTISRDNAKKSLYLQMNSLRAEDTALYYCAKDRSGYGHYYYGMDVWGQGTTVTVASASTKGPSVFPLAPSSKSTSGGTAALGCLVKDYFPEPVTVSWNSGALTSGVHTFPAVLQSSGLYSLSSVVTVPSSSLGTQTYICNVNHKPSNTKVDKKVEPKSCDKTHTCPPCPAPEAAGGPSVFLFPPKPKDTLMISRTPEVTCVVVDVSHEDPEVKFNWYVDGVEVHNAKTKPREEQYASTYRVVSVLTVLHQDWLNGKEYKCKVSNKALPAPIEKTISKAKGQPREPQVYTLPPSREEMTKNQVSLWCLVKGFYPSDIAVEWESNGQPENNYKTTPPVLDSDGSFFLYSKLTVDKSRWQQGNVFSCSVMHEALHNHYTQKSLSLSPGK
light 2: not shown
EC50 [5]: 0.089 µg/mL | EC50 [6]: 0.0137 µg/mL | EC50 (CD3 on Jurkat cells [7]): 0.00106 µg/mL | EC50 (read off the curve) (CD3 on Jurkat cells [7]): ~1 µg/mL | Kd [8]: 0.105 nM | Kd [9]: 37.9 nM | EC50 [10]: 0.199 µg/mL | EC50 [11]: 0.23 µg/mL | binding result [12]: no binding (tested: about 30000 ng/ml (LOG10 about 4.5))
